# Reference: patent US20250074973A1 (ANNEXON, published 2025)
# B1: full-length C1q antibody (heavy chain SEQ ID NO: 14; light chain SEQ ID NO: 40) (antibody, human IgG4 S228P, kappa)
# heavy: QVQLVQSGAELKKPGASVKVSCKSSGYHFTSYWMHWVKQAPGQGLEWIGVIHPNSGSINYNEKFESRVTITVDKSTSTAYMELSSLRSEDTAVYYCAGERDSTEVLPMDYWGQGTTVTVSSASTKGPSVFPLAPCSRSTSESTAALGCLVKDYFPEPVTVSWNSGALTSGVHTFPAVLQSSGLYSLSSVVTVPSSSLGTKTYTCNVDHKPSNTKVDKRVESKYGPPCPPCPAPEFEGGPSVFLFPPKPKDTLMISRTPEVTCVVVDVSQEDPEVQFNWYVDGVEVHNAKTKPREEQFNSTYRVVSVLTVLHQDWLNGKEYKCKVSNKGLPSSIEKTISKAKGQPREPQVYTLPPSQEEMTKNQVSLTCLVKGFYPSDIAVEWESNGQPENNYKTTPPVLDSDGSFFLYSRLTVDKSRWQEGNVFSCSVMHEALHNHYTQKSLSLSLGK
# light: DVQITQSPSSLSASLGERATINCRASKSINKYLAWYQQKPGKAPKLLIYSGSTLQSGIPARFSGSGSGTDFTLTISSLEPEDFAMYYCQQHNEYPLTFGQGTKLEIKRTVAAPSVFIFPPSDEQLKSGTASVVCLLNNFYPREAKVQWKVDNALQSGNSQESVTEQDSKDSTYSLSSTLTLSKADYEKHKVYACEVTHQGLSSPVTKSFNRGEC
# notes: also called full-length anti-C1q antibody; anti-C1q antibody
# Biological target: T1, human C1q (complement factor C1q, chains A, B and C) (Homo sapiens, UniProt P02745 23-245; P02746 28-253; P02747 29-245)
# T1 construct: Endogenous C1q in serum and CSF of the treated human subjects
# T1 sequence (P02745 23-245 limits assumed, chain 1 of 3): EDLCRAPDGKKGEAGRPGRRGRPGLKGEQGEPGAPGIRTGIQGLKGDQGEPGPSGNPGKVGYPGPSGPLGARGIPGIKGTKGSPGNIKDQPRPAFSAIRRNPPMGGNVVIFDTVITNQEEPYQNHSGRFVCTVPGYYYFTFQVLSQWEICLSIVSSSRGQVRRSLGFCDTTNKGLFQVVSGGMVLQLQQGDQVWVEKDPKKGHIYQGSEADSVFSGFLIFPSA
# T1 sequence (P02746 28-253 limits assumed, chain 2 of 3): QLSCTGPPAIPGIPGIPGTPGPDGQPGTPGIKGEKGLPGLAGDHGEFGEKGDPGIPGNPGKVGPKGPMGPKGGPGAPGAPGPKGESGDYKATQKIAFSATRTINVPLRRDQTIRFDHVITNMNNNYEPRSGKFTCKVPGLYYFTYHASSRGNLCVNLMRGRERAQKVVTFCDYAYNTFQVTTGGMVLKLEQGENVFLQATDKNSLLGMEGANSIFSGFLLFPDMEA
# T1 sequence (P02747 29-245 limits assumed, chain 3 of 3): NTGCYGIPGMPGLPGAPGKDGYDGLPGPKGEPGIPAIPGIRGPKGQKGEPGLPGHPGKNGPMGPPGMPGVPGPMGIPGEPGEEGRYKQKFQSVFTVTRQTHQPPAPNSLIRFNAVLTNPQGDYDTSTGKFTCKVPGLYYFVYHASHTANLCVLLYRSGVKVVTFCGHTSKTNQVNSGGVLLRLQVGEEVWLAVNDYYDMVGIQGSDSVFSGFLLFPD
# Assay: in vivo target engagement (PK/PD) in serum and CSF of dosed HD patients
binder,measurement,value
B1,binding result,binds
